Reference: patent US20100227805A1

Key:
Assay in all cases: cell-based or functional assay
[1] = target: human MIP-1α (CCL3) (human) (UniProt P10147)
[2] = target: murine RANTES (CCL5) (murine) (UniProt P30882)
[3] = target: murine MIP-1β (CCL4) (murine) (UniProt P14097)
Chain of murine MIP-1β (CCL4) (murine) (P14097 24-92 limits assumed): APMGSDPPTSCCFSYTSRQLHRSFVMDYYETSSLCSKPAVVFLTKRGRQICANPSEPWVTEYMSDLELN

Chain of human MIP-1α (CCL3) (human) (P10147 27-92 limits assumed): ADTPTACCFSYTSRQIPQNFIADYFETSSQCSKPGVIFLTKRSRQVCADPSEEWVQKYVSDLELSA
Chain of murine RANTES (CCL5) (murine) (P30882 24-91 limits assumed): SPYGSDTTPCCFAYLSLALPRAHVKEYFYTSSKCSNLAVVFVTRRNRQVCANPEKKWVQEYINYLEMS

Substance | inhibition of chemokine-induced THP-1 cell migration (transwell chemotaxis assay) [1] [%] | inhibition of chemokine-induced THP-1 cell migration (transwell chemotaxis assay) [2] [%] | inhibition of chemokine-induced THP-1 cell migration (transwell chemotaxis assay) [3] [%]
hCCR5(EC2)-IgG (Fc fusion) | 50 | – | –
mCCR5(EC3)-IgG (Fc fusion) | – | 50 | 50
